Like-named read-outs stand apart in the source and are kept apart here. Positions of bridges follow the written chain, without caps; N, C: chain ends. Non-standard residues stand in square brackets, D forms with d. Residues, ends and D or L forms follow the SMILES beside them. Groups on a side chain read outwards from the residue. *: point of attachment. Dip = N[C@H](C(=O)O)C(c1ccccc1)c1ccccc1; Palmitoyl = CCCCCCCCCCCCCCCC(=O)*; β3hF = N[C@H](CC(=O)O)Cc1ccccc1; Isovaleryl = CC(C)CC(=O)*; LAc = not defined here; Ahx = NCCCCCC(=O)O
T1: ferroportin (Homo sapiens, UniProt Q9NP59)
T1 sequence (Q9NP59 1-571): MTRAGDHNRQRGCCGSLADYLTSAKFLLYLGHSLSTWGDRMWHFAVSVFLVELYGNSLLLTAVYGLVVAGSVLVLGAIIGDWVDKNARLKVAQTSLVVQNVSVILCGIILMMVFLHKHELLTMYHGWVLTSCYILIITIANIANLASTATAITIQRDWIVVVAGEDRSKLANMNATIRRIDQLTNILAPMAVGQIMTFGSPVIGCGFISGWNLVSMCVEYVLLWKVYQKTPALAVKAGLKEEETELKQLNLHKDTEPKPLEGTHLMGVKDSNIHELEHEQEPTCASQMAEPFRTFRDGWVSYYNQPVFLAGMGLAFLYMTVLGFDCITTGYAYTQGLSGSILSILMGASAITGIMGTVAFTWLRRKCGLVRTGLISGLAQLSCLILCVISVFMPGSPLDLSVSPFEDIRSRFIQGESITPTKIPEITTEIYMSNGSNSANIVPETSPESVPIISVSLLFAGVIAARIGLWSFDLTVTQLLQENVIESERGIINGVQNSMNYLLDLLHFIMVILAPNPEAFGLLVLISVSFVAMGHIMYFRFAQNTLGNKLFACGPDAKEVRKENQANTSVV

T2: human ferroportin (SLC40A1) fused in frame with GFP, stably expressed in HEK293 cells (human, UniProt Q9NP59 1-571)
T2 sequence (looked up): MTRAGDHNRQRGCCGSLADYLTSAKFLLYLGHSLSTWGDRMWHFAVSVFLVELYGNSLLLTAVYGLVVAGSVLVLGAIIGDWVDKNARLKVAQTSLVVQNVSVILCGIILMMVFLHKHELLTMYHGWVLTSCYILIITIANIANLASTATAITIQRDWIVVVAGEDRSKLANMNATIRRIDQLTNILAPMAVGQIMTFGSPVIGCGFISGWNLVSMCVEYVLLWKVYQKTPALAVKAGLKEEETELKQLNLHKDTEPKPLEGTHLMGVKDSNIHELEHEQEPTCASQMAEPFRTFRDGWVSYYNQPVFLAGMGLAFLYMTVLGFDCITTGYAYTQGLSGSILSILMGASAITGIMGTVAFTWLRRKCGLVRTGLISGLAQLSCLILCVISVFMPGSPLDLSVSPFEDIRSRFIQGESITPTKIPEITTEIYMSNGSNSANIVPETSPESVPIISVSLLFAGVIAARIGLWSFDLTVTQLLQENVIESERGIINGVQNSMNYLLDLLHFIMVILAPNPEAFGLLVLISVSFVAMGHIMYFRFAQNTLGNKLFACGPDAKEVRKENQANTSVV

T3: ferroportin endogenously expressed on T47D cells (HTB 133, ATCC) (human, UniProt Q9NP59 1-571)
T3 sequence (looked up): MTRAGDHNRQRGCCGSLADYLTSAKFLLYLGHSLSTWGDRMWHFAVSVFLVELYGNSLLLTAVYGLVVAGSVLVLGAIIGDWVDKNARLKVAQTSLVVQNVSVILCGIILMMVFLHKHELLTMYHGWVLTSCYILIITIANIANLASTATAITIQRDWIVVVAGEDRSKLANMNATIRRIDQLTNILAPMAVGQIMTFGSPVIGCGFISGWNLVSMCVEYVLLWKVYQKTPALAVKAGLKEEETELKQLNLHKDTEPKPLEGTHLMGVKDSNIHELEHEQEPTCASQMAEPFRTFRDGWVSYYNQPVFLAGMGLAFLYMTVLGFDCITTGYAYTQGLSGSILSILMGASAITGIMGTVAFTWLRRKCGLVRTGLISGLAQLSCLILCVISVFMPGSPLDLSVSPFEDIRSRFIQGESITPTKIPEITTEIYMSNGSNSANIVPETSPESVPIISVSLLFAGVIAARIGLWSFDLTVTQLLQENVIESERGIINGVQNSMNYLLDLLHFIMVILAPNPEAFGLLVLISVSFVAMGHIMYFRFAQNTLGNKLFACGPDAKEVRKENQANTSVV

T4: human ferroportin (SLC40A1) fused in frame with GFP, stably expressed in HEK293 cells (human) (UniProt Q9NP59)
T4 sequence (looked up): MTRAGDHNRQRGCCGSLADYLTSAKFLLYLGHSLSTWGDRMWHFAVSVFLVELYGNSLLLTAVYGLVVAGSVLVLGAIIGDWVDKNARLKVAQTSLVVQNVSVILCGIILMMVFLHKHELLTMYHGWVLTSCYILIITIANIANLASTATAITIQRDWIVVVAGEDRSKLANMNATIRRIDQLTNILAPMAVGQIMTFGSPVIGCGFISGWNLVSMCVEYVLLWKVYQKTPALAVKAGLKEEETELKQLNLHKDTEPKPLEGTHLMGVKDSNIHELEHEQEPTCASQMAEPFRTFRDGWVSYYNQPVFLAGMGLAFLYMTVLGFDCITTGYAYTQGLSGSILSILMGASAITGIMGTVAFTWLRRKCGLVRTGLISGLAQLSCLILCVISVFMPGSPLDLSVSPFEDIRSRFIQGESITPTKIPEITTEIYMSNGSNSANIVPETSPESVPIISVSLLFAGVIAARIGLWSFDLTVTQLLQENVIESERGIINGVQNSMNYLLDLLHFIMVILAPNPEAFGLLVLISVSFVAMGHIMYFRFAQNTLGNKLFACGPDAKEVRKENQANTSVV


Tests used:
[1] = molecular target: ferroportin endogenously expressed on T47D cells (HTB 133, ATCC) (human) (UniProt Q9NP59); assay: cell-based or functional assay
ferroportin = molecular target: T1, ferroportin; assay: T47D cell-based ferroportin internalization assay in presence of mouse serum albumin (MSA), AF647 detection peptide, flow cytometry; design: a human breast carcinoma adherent cell line which endogenously expresses ferroportin; host or cells: T47D; settings: second Table 6D, T47D/MSA data; with mouse serum albumin
Description: The potency of the peptides in causing ferroportin internalization was evaluated in a T47D cell-based assay. […] In this internalization assay, the potency of the test peptides was evaluated in presence of serum albumin which is the main protein component in the blood. T47D cells were maintained in RPMI media (containing required amount of fetal bovine serum) and regularly sub-cultured. […] The test peptide dilution series were allowed to incubate at room temperature for 30 min. Then the media was aspirated from the 96-well cell plate and test peptide dilution series were added. After 1 hr incubation, the media with test peptides was aspirated out and A1F647-conjugated detection peptide was added at fixed concentration of 200 nM. […] The cells were washed again after a 2 hr incubation in preparation for flow cytometry analysis. The Median Fluorescence Intensity (MFI) of the AF647-positive population was measured (after removing dead cells and non-singlets from the analysis). The MFI values were used to generate a dose-response curve and obtain IC50 potencies for the test peptides. The IC50 potencies were calculated by using 4-parameter non-linear fitting function in Graphpad Prism (Table 6D).

[2] = molecular target: T2, human ferroportin (SLC40A1) fused in …; assay: cell-based or functional assay
[3] = molecular target: T3, ferroportin endogenously expressed on …; assay: cell-based or functional assay
[4] = molecular target: T4, human ferroportin (SLC40A1) fused in frame with GFP, stably expressed in HEK293 cells (human); assay: cell-based or functional assay
[5] = molecular target: T2, human ferroportin (SLC40A1) fused in …; assay: cell-based or functional assay; remark: listed apart in the source
[6] = molecular target: T3, ferroportin endogenously expressed on …; assay: cell-based or functional assay; remark: listed apart in the source

FPN IC50 [2] [nM] | T47D IC50 [3] [nM] | FPN IC50 [5] [nM] | T47D IC50 [6] [nM] | Molecule | other results
– | – | – | – | Isovaleric Acid-K-T-H-[Dpa]-P-E-[Lys(Ahx_Palm)]-NH2 (peptide) | T47D MSA IC50 [1]: 101 nM
– | – | – | – | CCCCCCCCCCCCCCCC(=O)NCCCCCC(=O)NCCCC[C@H](NC(=O)C[C@H](Cc1ccccc1)NC(=O)[C@H]1CCCCNC(=O)CC[C@H](NC(=O)CC(C)C)C(=O)N[C@@H]([C@@H](C)O)C(=O)N[C@@H](Cc2c[nH]cn2)C(=O)N[C@@H](C(c2ccccc2)c2ccccc2)C(=O)N2CCC[C@H]2C(=O)N[C@@H](C)C(=O)N[C@@H]([C@@H](C)CC)C(=O)N1)C(=O)N[C@@H](CCCNC(=N)N)C(N)=O [compound 56] (Isovaleryl-ETH[Dip]PAI[dK][β3hF]K([Ahx-Palmitoyl])R-NH2; lactam 1-8) | IC50 (ferroportin): 8.9 nM
62.2 | 464 | – | – | Isovaleryl-ETH[Dip]K([Ahx-Palmitoyl])-N_Butyl_Phe [Isovaleric Acid-E-T-H-[Dpa]-[Lys(Ahx_Palm)]-N_Butyl_Phe] | –
– | – | – | – | H-DTHFPICIF-NH2 (peptide, from a related filing) [Mini-Hepcidin 1-9: Hy-…-NH2] | Potency EC50 [4]: 712 nM
– | – | 30.6 | 4.05 | Isovaleryl-ETH[Dip]PA[dK](Gal)K([Ahx-Palmitoyl])[β3hF]-NH2 [Isovaleric Acid-E-T-H-[Dpa]-P-A-d[Lys(Gal-[Lys(Ahx_Palm)]-[bhPhe]-NH2] | –
27 | 229 | – | – | Isovaleryl-K(Glu)TH[Dip]PAIK([Ahx-Palmitoyl])[β3hF]-NH2 [Isovaleric Acid-[Lys(Glu-T-H-[Dpa]-P-A-I-[Lys(Ahx_Palm)]-[bhPhe]-NH2] | –
27.5 | 284 | – | – | Isovaleryl-K(LAc)TH[Dip]PAIK([Ahx-Palmitoyl])[β3hF]-NH2 (reading uncertain) [Isovaleric Acid-[Lys(LAc-T-H-[Dpa]-P-A-I-[Lys(Ahx_Palm)]-[bhPhe]-NH2] | –
– | – | 14.3 | 35.5 | Isovaleryl-ETH[Dip]PK(Gal)IK([Ahx-Palmitoyl])[β3hF]-NH2 [Isovaleric Acid-E-T-H-[Dpa]-P-[Lys(Gal-I-[Lys(Ahx_Palm)]-[bhPhe]-NH2] | –
– | – | 42 | 19.1 | Isovaleryl-ETH[Dip]PAK(Gal)K([Ahx-Palmitoyl])[β3hF]-NH2 [Isovaleric Acid-E-T-H-[Dpa]-P-A-[Lys(Gal-[Lys(Ahx_Palm)]-[bhPhe]-NH2] | –
